From the supplement of paper PMC7125110
± gives the standard error. This sample holds only a part of the variants without activity.

B1: glmS ribozyme (parent)
chain: AUAAAAGCGCCAGAACUACAGAAAUGUAGUUGACGAGGAGGAGGUUUAUCGAAUUUUCGGCGGAUGCCUCCAAA

Variants of: B1
Experiment: self-cleavage kobs at 10000 uM GlcN6P; higher = faster cleavage; RNA array
Conditions: with glucosamine-6-phosphate
Summary of the method: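 Barcoded ribozyme variants on sequenced MiSeq chips were transcribed in situ by E. coli RNA polymerase and followed at 37 °C through a hybridised Cy3 probe. Glucosamine-6-phosphate at 40 μM to 10 mM in HEPES/KCl/Mg(OAc)2 buffer was flowed in, and tiles were imaged over ~14 h. Signals were normalised to baseline and to non-cleaving reference variants, and per-tile medians were fit to one- or two-exponential decays to give kobs. Weighted Michaelis–Menten fits across concentrations gave kcat and KM.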

Variant	self-cleavage kobs at 10000 uM GlcN6P [s⁻¹]
C8G A14C C68G	< 1e-05
U30A C61A	< 1e-05
C8A A15G A39C C70G	< 1e-05
A14G A15G A48C	0.00148 ± 0.00029
A12G A42G U47C	0.000197 ± 3.9e-05
G41A A52U	9.26e-05 ± 1.6e-05
G43A A52C C58A G66U C67G U69G	< 1e-05
A14U C50G G62A A64G	0.000115 ± 2.4e-05
U46G G62A C71A	< 1e-05
G38U A53U U69G	0.000134 ± 3.5e-05
A12U A15U G29A	0.00126 ± 0.00032
A33U A53C G62U	< 1e-05
C8U A39C G41A U57C G59U	< 1e-05
A12U U30A A39U U55C	0.0143 ± 0.0028
G40A G44U U47G G60U C61U C68U	< 1e-05
G29U U55A U69A	4.12e-05 ± 1.6e-05
C11A A42G C67U	4.66e-05 ± 1.8e-05
G29A G32U C70A	4.82e-05 ± 1.8e-05
A42G C58A C67U	0.00012 ± 1.9e-05
A39G U45C C67A	0.00692 ± 0.0024
A15C A53U C71G	0.000151 ± 3.6e-05

Variant	self-cleavage kobs at 10000 uM GlcN6P [s⁻¹]
G13C G32A U45G A52C C70U	< 1e-05
U30G U49A C68A	< 1e-05
C10U U30A C68U	< 1e-05
U56A U69C C71G	8.19e-05 ± 2e-05
A52G U57G U65C	6.98e-05 ± 1.2e-05
A33U U45A U55C C71U	< 1e-05
G13C G43A	< 1e-05
G51C U55C	< 1e-05
A6G C16A G37C U69C	< 1e-05
A42G C58G U69C	0.000133 ± 3.8e-05
C16A A64G C67G C70U	< 1e-05
G21U G29C	0.00256 ± 0.0005
G37C A48G G62U	< 1e-05
A14C A52G C61A	< 1e-05
U30G U45A C71G	0.000315 ± 5.9e-05
A14C A33G C58G U65C	< 1e-05
C10G A14C G63U	< 1e-05
A14G U54A C70G	0.000124 ± 2.6e-05
C11A U45A U46G	0.000161 ± 4e-05
A15G U65C C67U	7.42e-05 ± 1.7e-05
A6G C16G C50G	5.57e-05 ± 2.1e-05

Variant	self-cleavage kobs at 10000 uM GlcN6P [s⁻¹]
G40C G41A C50U	< 1e-05
G59A C68A U69A	< 1e-05
G32A A64U C68U	< 1e-05
G7U A15C A36G	< 1e-05
A14C G38C G60U	< 1e-05
C16A G41A G51C	< 1e-05
G13A G29A G63U	< 1e-05
G9A A33U U69C	< 1e-05
A14U A64C	2.75e-05 ± 1.3e-05
G9C C34U	< 1e-05
A12U C50G G62A C71U	8.18e-05 ± 2.2e-05
C10G G40U U46C C71U	< 1e-05
G7C G29A	< 1e-05
G41A U56C	3.52e-05 ± 1.7e-05
A6C C50A U55G	< 1e-05
U49A C70A	< 1e-05
C8U U45A A48G C70G	< 1e-05
C10U G43A C71U	< 1e-05
C34U G44U U54A G63C	< 1e-05
G37C G59U C61G	< 1e-05
C10G G40U U55A C61U	< 1e-05

Variant	self-cleavage kobs at 10000 uM GlcN6P [s⁻¹]
G7C C34A A48G U56G C71U	< 1e-05
A14U C19U C58G	9.16e-05 ± 2.1e-05
G9A A53G	3.28e-05 ± 1.3e-05
U56G A64U C70U	4.79e-05 ± 1.2e-05
C50G G60A C71G	0.000124 ± 3.5e-05
U45A A53G U55A U65A C67A	0.000759 ± 0.00025
C8G C16U A53G C61U	< 1e-05
A15G A33C U46G	4.59e-05 ± 1.3e-05
C50G U54G U65G	< 1e-05
U46G U55G G66U	0.000444 ± 0.00018
G7A C34U A42C	< 1e-05
A15G A52G C67U C71G	4.89e-05 ± 1.3e-05
A6U A12U A64G	0.000171 ± 4.1e-05
G37U G38A C67U	< 1e-05
G7U A15U C50G A53U U55G G62U	7.67e-05 ± 2.5e-05
G37C U45A U54C G63C	< 1e-05
A48U U54C C68U	9.01e-05 ± 2.8e-05
G13U U30A G43C	< 1e-05
U31G G38C G40C G60C U69A C71A	< 1e-05
U31C G32A U47G C67A	6.62e-05 ± 1.4e-05
